# Reference: patent US20210388087A1 (Chugai, published 2021)
# Biological target: T1, Human CD137 ECD (human)
# T1 construct: entry includes C-terminal His-tag and biotin acceptor peptide; also called human CD137 extracellular domain; 4-1BB
# Assay: Biacore SPR, vs parent H183/L072
# T1 sequence (chain, as listed by the source limits assumed): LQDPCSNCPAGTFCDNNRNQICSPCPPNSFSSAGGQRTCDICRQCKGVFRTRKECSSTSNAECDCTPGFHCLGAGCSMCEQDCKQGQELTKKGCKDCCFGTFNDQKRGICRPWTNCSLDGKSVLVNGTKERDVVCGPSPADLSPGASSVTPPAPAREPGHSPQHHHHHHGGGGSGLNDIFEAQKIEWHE
row,Binder,fold change of affinity
1,"H183/L072 VL A25Q (antibody, name in Kabat numbering, V domains shown, Dual-Ig) VH: QVQLVESGGGLVQPGRSLRLSCAASGFTFSNAWMHWVRQAPGKGLEWVAQIKDKGNAYAAYYAPSVKGRFTISRDDSKNSIYLQMNSLKTEDTAVYYCHYVHYASASTVLPAFGVDAWGQGTTVTVSS VL: DIVMTQSPLSLPVTPGEPASISCQQSQELVHMNRNTYLHWYQQKPGQAPRLLIYKVSNRFPGVPDRFSGSGSGTDFTLKISRVEAEDVGVYYCAQGTSVPFTFGQGTKLEIK",0.1 fold
2,"H183/L072 VL A89F (antibody, name in Kabat numbering, V domains shown, Dual-Ig) VH: QVQLVESGGGLVQPGRSLRLSCAASGFTFSNAWMHWVRQAPGKGLEWVAQIKDKGNAYAAYYAPSVKGRFTISRDDSKNSIYLQMNSLKTEDTAVYYCHYVHYASASTVLPAFGVDAWGQGTTVTVSS VL: DIVMTQSPLSLPVTPGEPASISCQASQELVHMNRNTYLHWYQQKPGQAPRLLIYKVSNRFPGVPDRFSGSGSGTDFTLKISRVEAEDVGVYYCFQGTSVPFTFGQGTKLEIK",0 fold
3,"H183/L072 VL A25V (antibody, name in Kabat numbering, V domains shown, Dual-Ig) VH: QVQLVESGGGLVQPGRSLRLSCAASGFTFSNAWMHWVRQAPGKGLEWVAQIKDKGNAYAAYYAPSVKGRFTISRDDSKNSIYLQMNSLKTEDTAVYYCHYVHYASASTVLPAFGVDAWGQGTTVTVSS VL: DIVMTQSPLSLPVTPGEPASISCQVSQELVHMNRNTYLHWYQQKPGQAPRLLIYKVSNRFPGVPDRFSGSGSGTDFTLKISRVEAEDVGVYYCAQGTSVPFTFGQGTKLEIK",0.5 fold
4,"H183/L072 VL A89E (antibody, name in Kabat numbering, V domains shown, Dual-Ig) VH: QVQLVESGGGLVQPGRSLRLSCAASGFTFSNAWMHWVRQAPGKGLEWVAQIKDKGNAYAAYYAPSVKGRFTISRDDSKNSIYLQMNSLKTEDTAVYYCHYVHYASASTVLPAFGVDAWGQGTTVTVSS VL: DIVMTQSPLSLPVTPGEPASISCQASQELVHMNRNTYLHWYQQKPGQAPRLLIYKVSNRFPGVPDRFSGSGSGTDFTLKISRVEAEDVGVYYCEQGTSVPFTFGQGTKLEIK",0 fold
5,"H183/L072 VL A25S (antibody, name in Kabat numbering, V domains shown, Dual-Ig) VH: QVQLVESGGGLVQPGRSLRLSCAASGFTFSNAWMHWVRQAPGKGLEWVAQIKDKGNAYAAYYAPSVKGRFTISRDDSKNSIYLQMNSLKTEDTAVYYCHYVHYASASTVLPAFGVDAWGQGTTVTVSS VL: DIVMTQSPLSLPVTPGEPASISCQSSQELVHMNRNTYLHWYQQKPGQAPRLLIYKVSNRFPGVPDRFSGSGSGTDFTLKISRVEAEDVGVYYCAQGTSVPFTFGQGTKLEIK",1.1 fold
6,"H183/L072 VL A89D (antibody, name in Kabat numbering, V domains shown, Dual-Ig) VH: QVQLVESGGGLVQPGRSLRLSCAASGFTFSNAWMHWVRQAPGKGLEWVAQIKDKGNAYAAYYAPSVKGRFTISRDDSKNSIYLQMNSLKTEDTAVYYCHYVHYASASTVLPAFGVDAWGQGTTVTVSS VL: DIVMTQSPLSLPVTPGEPASISCQASQELVHMNRNTYLHWYQQKPGQAPRLLIYKVSNRFPGVPDRFSGSGSGTDFTLKISRVEAEDVGVYYCDQGTSVPFTFGQGTKLEIK",0 fold
7,"H183/L072 VL A89G (antibody, name in Kabat numbering, V domains shown, Dual-Ig) VH: QVQLVESGGGLVQPGRSLRLSCAASGFTFSNAWMHWVRQAPGKGLEWVAQIKDKGNAYAAYYAPSVKGRFTISRDDSKNSIYLQMNSLKTEDTAVYYCHYVHYASASTVLPAFGVDAWGQGTTVTVSS VL: DIVMTQSPLSLPVTPGEPASISCQASQELVHMNRNTYLHWYQQKPGQAPRLLIYKVSNRFPGVPDRFSGSGSGTDFTLKISRVEAEDVGVYYCGQGTSVPFTFGQGTKLEIK",0.5 fold
8,"H183/L072 VL A25T (antibody, name in Kabat numbering, V domains shown, Dual-Ig) VH: QVQLVESGGGLVQPGRSLRLSCAASGFTFSNAWMHWVRQAPGKGLEWVAQIKDKGNAYAAYYAPSVKGRFTISRDDSKNSIYLQMNSLKTEDTAVYYCHYVHYASASTVLPAFGVDAWGQGTTVTVSS VL: DIVMTQSPLSLPVTPGEPASISCQTSQELVHMNRNTYLHWYQQKPGQAPRLLIYKVSNRFPGVPDRFSGSGSGTDFTLKISRVEAEDVGVYYCAQGTSVPFTFGQGTKLEIK",0.7 fold
